Assay results from patent US20220363757A1 (SYMPHOGEN A S, published 2022).

T1: human LAG-3 domain 1-2 Fc fusion, chimeric construct #11 (mutated region AA 74-82) (human, UniProt P18627 23-266)
T1 construct: not shown: human IgG1 Fc, AA P101-K330
T1 chain: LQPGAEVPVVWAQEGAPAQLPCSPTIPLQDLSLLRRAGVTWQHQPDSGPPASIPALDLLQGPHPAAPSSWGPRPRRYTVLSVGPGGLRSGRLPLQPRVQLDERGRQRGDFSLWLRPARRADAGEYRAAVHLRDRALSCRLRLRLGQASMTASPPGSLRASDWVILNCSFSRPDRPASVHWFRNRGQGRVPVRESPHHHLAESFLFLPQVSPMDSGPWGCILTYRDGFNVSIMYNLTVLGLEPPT


Target: T1, human LAG-3 domain 1-2 Fc fusion, …
Assay: SPR, Fab over captured mutant LAG-3-Fc;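 also: LAG-3 fusion proteins captured on an anti-human IgG Fc sensor chip and read on an IBIS MX96 biosensor, Fab association and dissociation each 15 min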

Row | KD mutant/KD wild type [fold] | Binder
1 | 1.5 | Fab fragment of antibody 15532 (Fab, V domains shown, not shown: a dimerising Fc or GST, monomeric Fab made by GingisKHAN digestion of the IgG1) VH: QVQLQQWGAGLLRPSETLSLTCAVYGESFSGYYWNWIRQPPGKGLEWIGEINHSGSTNYNPSLKSRVTISVDTSKTQFSLKLSSVTAADTAVYYCARGWDLLDWNDYWNEYWGQGTLVTVSS VL: EIVLTQSPATLSLSPGERATLSCRASQSVSSYLAWYQQKPGQAPRLLIYDASNRATGIPARFSGSGSGTDFTLTISSLEPEDFAVYYCQQRSNWPLTFGGGTKVEIKR
2 | 0.6 | Fab fragment of antibody 15011 (Fab, V domains shown, not shown: a dimerising Fc or GST, monomeric Fab made by GingisKHAN digestion of the IgG1) VH: EVQLLESGGGLVQPGGSLRLSCAASGFDFRSYAMMWVRQAPGKGLEWVGGINGEVGGSNTYYAPAVKGRATISRDNSKNTLYLQMNSLRAEDTAVYYCVKGAGACGICNDDIDAWGQGTLVTVSS VL: SYELTQDPAVSVALGQTVRITCSGAGSYAGSYYYGWHQQKPGQAPVTVIYDNDKRPSNIPDRFSGSSSGNTASLTITGAQAEDEADYYCGSTNDNDDGGLFGSGTKVTVLG
3 | 0.4 | Fab fragment of antibody 15431 (Fab, V domains shown, not shown: a dimerising Fc or GST, monomeric Fab made by GingisKHAN digestion of the IgG1) VH: QVQLQQSGPGLVKPSQTLSLTCAISGDSVSSNSAAWNWIRQSPSRGLEWLGRTYYRSKWYNDYAVSVKSRITINPDTSKNQFSLQLNSVTPEDTAVYYCARDDDWNDFDYWGQGTLVTVSS VL: EIVLTQSPATLSLSPGERATLSCRASQSVSSYLAWYQQKPGQAPRLLIYDASNRATGIPARFSGSGSGTDFTLTISSLEPEDFAVYYCQQRSNWPLTFGGGTKVEIKR
4 | 0.5 | Fab fragment of antibody 15572 (Fab, V domains shown, not shown: a dimerising Fc or GST, monomeric Fab made by GingisKHAN digestion of the IgG1) VH: QLQLQESGPGLVKPSETLSLTCTVSGDSISSSSYYWGWIRQPPGKGLEWIGSIFYSGNTYYNPSLKSRVTISVDTSKNQFSLKLSSVTAADTAVYYCAREDDFLTDYYGAFDIWGQGTMVTVSS VL: not shown
